Experimental data from publication PMC12695660, “Genome-scale CRISPR screens identify PTGES3 as a direct modulator of androgen receptor function in advanced prostate cancer”.

Assays:
[1] = target: ARΔNTD (AR DBD-hinge-LBD) (mouse, UniProt P19091 528-899); test: fluorescence polarization; 1 uM DHT; no PTGES3; apparent Kd only plotted; FP/EMSA: 150 mM NaCl, 20 mM HEPES pH 7.5, 1 mM TCEP, 1 uM DHT, 10% glycerol, 0.05% IGEPAL CA-630, 100 nM DNA; proteins preincubated 30 min on ice at 8 uM; assay temperature not stated. Mass photometry: same buffer at 5 uM, flash diluted into PBS to 10 nM; details: protein: recombinant; chain copies: 2; label: 5'-fluorescein (6-FAM) on sense strand; blunt
ARΔNTD (AR DBD-hinge-LBD), sequence (P19091 528-899, stated change not applied): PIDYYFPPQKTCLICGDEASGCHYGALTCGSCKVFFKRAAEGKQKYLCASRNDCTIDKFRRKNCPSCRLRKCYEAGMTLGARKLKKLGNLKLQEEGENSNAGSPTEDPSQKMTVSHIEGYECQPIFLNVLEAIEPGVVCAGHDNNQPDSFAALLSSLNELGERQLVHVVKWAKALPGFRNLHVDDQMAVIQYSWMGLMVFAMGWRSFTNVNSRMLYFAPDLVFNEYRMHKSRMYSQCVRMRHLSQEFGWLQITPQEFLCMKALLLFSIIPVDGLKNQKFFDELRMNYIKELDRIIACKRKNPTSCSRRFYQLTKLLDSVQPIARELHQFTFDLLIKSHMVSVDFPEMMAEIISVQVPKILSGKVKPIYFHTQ

[2] = target: ARΔNTD (AR DBD-hinge-LBD);PTGES3 (tagless) (mouse;human, UniProt P19091;Q15185 528-899;1-160, |); test: fluorescence polarization; 1 uM DHT; equimolar PTGES3; binding stronger than ARΔNTD alone (P=0.0337); FP/EMSA: 150 mM NaCl, 20 mM HEPES pH 7.5, 1 mM TCEP, 1 uM DHT, 10% glycerol, 0.05% IGEPAL CA-630, 100 nM DNA; proteins preincubated 30 min on ice at 8 uM; assay temperature not stated. Mass photometry: same buffer at 5 uM, flash diluted into PBS to 10 nM; details: protein: recombinant;recombinant; tags: ;Smt3 tag cleaved by Ulp1; label: 5'-fluorescein (6-FAM) on sense strand; blunt
ARΔNTD (AR DBD-hinge-LBD);PTGES3 (tagless), sequence (P19091 528-899, stated change not applied, chain 1 of 2): as the sequence (P19091 528-899, stated change not applied) above
ARΔNTD (AR DBD-hinge-LBD);PTGES3 (tagless), sequence (Q15185 whole entry, stated change not applied, chain 2 of 2, the tested form may be a part): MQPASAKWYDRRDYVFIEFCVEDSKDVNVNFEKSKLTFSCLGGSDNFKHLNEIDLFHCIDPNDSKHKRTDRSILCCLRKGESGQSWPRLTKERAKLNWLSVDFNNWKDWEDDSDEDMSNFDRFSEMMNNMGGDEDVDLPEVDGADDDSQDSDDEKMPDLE

[3] = target: T1, ARΔNTD (AR DBD-hinge-LBD);Smt3-PTGES3 (mouse;human, UniProt P19091;Q15185 528-899;1-160, |); test: fluorescence polarization; 1 uM DHT; equimolar Smt3-PTGES3; binding stronger than ARΔNTD alone (P=0.0254); FP/EMSA: 150 mM NaCl, 20 mM HEPES pH 7.5, 1 mM TCEP, 1 uM DHT, 10% glycerol, 0.05% IGEPAL CA-630, 100 nM DNA; proteins preincubated 30 min on ice at 8 uM; assay temperature not stated. Mass photometry: same buffer at 5 uM, flash diluted into PBS to 10 nM; details: protein: recombinant;recombinant; tags: ;N-terminal Smt3; label: 5'-fluorescein (6-FAM) on sense strand; blunt
T1 sequence (P19091 528-899, stated change not applied, chain 1 of 2): as the sequence (P19091 528-899, stated change not applied) above
T1 sequence (Q15185 whole entry, stated change not applied, chain 2 of 2, the tested form may be a part): as the sequence (Q15185 whole entry, stated change not applied, chain 2 of 2, the tested form may be a part) above

[4] = target: ARDBD;PTGES3 (tagless) (mouse;human, UniProt P19091;Q15185 528-631;1-160, |); test: EMSA; equimolar PTGES3 augments ARDBD binding; PTGES3 variant (tagless or Smt3) not stated; FP/EMSA: 150 mM NaCl, 20 mM HEPES pH 7.5, 1 mM TCEP, 1 uM DHT, 10% glycerol, 0.05% IGEPAL CA-630, 100 nM DNA; proteins preincubated 30 min on ice at 8 uM; assay temperature not stated. Mass photometry: same buffer at 5 uM, flash diluted into PBS to 10 nM; details: protein: recombinant;recombinant; tags: ;Smt3 tag cleaved by Ulp1; label: 5'-fluorescein (6-FAM) on sense strand; blunt
ARDBD;PTGES3 (tagless), sequence (P19091 528-631, chain 1 of 2): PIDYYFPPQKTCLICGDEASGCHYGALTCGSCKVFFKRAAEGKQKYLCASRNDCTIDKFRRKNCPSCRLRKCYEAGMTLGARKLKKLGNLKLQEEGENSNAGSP
ARDBD;PTGES3 (tagless), sequence (Q15185 whole entry, chain 2 of 2, the tested form may be a part): as the sequence (Q15185 whole entry, stated change not applied, chain 2 of 2, the tested form may be a part) above

[5] = target: T1, ARΔNTD (AR DBD-hinge-LBD);Smt3-PTGES3; test: mass photometry; Smt3-PTGES3 restricts formation of heterogeneous complexes; FP/EMSA: 150 mM NaCl, 20 mM HEPES pH 7.5, 1 mM TCEP, 1 uM DHT, 10% glycerol, 0.05% IGEPAL CA-630, 100 nM DNA; proteins preincubated 30 min on ice at 8 uM; assay temperature not stated. Mass photometry: same buffer at 5 uM, flash diluted into PBS to 10 nM; details: protein: recombinant;recombinant; tags: ;N-terminal Smt3; blunt

B1: ARE 36 bp (dsDNA)
DNA 1: TAAAATGTAAACAACGTAGAACATCAGGAACTCCGG
DNA 2: CCGGAGTTCCTGATGTTCTACGTTGTTTACATTTTA
Which results are given for B1?
binding result [1]: binds; binding result [2]: binds; binding result [3]: binds

B2: Canonical ARE 36 bp (dsDNA)
DNA 1: TAAAATGTAAACAACGTAGAACATCATGTTCTCCGG
DNA 2: CCGGAGAACATGATGTTCTACGTTGTTTACATTTTA
Does B2 bind [4]?
Result: binds

B3: ARE 36 bp, unlabeled (mass photometry) (dsDNA)
DNA 1: TAAAATGTAAACAACGTAGAACATCATGTTCTCCGG
DNA 2: CCGGAGAACATGATGTTCTACGTTGTTTACATTTTA
Does B3 bind [5]?
Result: binds
